T1: HDP1 homeodomain-like (Plasmodium falciparum, UniProt Q8IKH4 2990-3078)
T1 sequence: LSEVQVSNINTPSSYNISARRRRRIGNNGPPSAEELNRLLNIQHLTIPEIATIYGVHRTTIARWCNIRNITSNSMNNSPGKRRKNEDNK


Columns and labels:
[1] = target: T1, HDP1 homeodomain-like; assay: gcPBM; about 25 ug protein; PBS, 1% milk, 0.2 mg/ml BSA, salmon testes DNA, 0.03% Triton X-100; settings: tags: N-terminal GST (pGEX-4T-1), kept; chain copies: 2; label: surface-attached array probe
[2] = target: AP2-I D3 (Plasmodium falciparum, UniProt Q8IJW6 910-1027); assay: as above; settings: tags: N-terminal GST (pGEX-4T-1), kept; label: surface-attached array probe

Binder | binding signal [1] | binding signal [2]
GTGCAC_site9541 (dsDNA) DNA 1: ATGAGTAACATATTTGTGCACATATGGTTATTTTTA DNA 2: TAAAAATAACCATATGTGCACAAATATGTTACTCAT | 11.1 ln median PBM intensity, better of two orientations | 10.4 ln median PBM intensity, better of two orientations
GTGCAC_negctrl_site601 (dsDNA) DNA 1: TAAGCCAAGGGATAAATAAAATAACAAAATGAAATC DNA 2: GATTTCATTTTGTTATTTTATTTATCCCTTGGCTTA | 6.27 ln median PBM intensity, better of two orientations | 7.02 ln median PBM intensity, better of two orientations
GTGCAC_site10685 (dsDNA) DNA 1: TTATATTTCACAAATGTGCACAGATACATATATATA DNA 2: TATATATATGTATCTGTGCACATTTGTGAAATATAA | 11.1 ln median PBM intensity, better of two orientations | 10.1 ln median PBM intensity, better of two orientations
GTGCAC_negctrl_site614 (dsDNA) DNA 1: TATTTAGACATAACAAATAGACTAACAAAAGATTTA DNA 2: TAAATCTTTTGTTAGTCTATTTGTTATGTCTAAATA | 6.13 ln median PBM intensity, better of two orientations | 6.94 ln median PBM intensity, better of two orientations
GTGCAC_negctrl_site154 (dsDNA) DNA 1: AATAGTATTCACAAAGTTTTATATAATAAATATAAA DNA 2: TTTATATTTATTATATAAAACTTTGTGAATACTATT | 5.94 ln median PBM intensity, better of two orientations | 6.96 ln median PBM intensity, better of two orientations
GTGCAC_negctrl_site39 (dsDNA) DNA 1: AAACAGCATGGTATACCTATAAAATATATATACTAA DNA 2: TTAGTATATATATTTTATAGGTATACCATGCTGTTT | 6.18 ln median PBM intensity, better of two orientations | 7.07 ln median PBM intensity, better of two orientations
GTGCAC_site9591 (dsDNA) DNA 1: ACATATTATATATGTGTGCACATATATATATATTTA DNA 2: TAAATATATATATATGTGCACACATATATAATATGT | 9.98 ln median PBM intensity, better of two orientations | 9.12 ln median PBM intensity, better of two orientations
GTGCAC_negctrl_site177 (dsDNA) DNA 1: TCACAAAAAGAACATTGATATTATTATAAAATCGTC DNA 2: GACGATTTTATAATAATATCAATGTTCTTTTTGTGA | 6.14 ln median PBM intensity, better of two orientations | 7 ln median PBM intensity, better of two orientations
GTGCAC_negctrl_site138 (dsDNA) DNA 1: AAAAACAATCATTTTAAATAAAAATCTCTAATTTAA DNA 2: TTAAATTAGAGATTTTTATTTAAAATGATTGTTTTT | 5.6 ln median PBM intensity, better of two orientations | 6.74 ln median PBM intensity, better of two orientations
GTGCAC_negctrl_site641 (dsDNA) DNA 1: TTTTCTTGACCTATTATTCTTCTCATAGTATAATAT DNA 2: ATATTATACTATGAGAAGAATAATAGGTCAAGAAAA | 6.18 ln median PBM intensity, better of two orientations | 7.08 ln median PBM intensity, better of two orientations
GTGCAC_negctrl_site27 (dsDNA) DNA 1: ACATATGTATGAATATCAAAAAATCCCTATTTAATG DNA 2: CATTAAATAGGGATTTTTTGATATTCATACATATGT | 6.3 ln median PBM intensity, better of two orientations | 6.97 ln median PBM intensity, better of two orientations
GTGCAC_negctrl_site342 (dsDNA) DNA 1: TATTTATATAATCCTATAATATTACTACTATCTTTA DNA 2: TAAAGATAGTAGTAATATTATAGGATTATATAAATA | 6.28 ln median PBM intensity, better of two orientations | 6.86 ln median PBM intensity, better of two orientations
GTGCAC_negctrl_site257 (dsDNA) DNA 1: TGCAAAAAAAAAAAAAAAAAATATATGGAAATATAT DNA 2: ATATATTTCCATATATTTTTTTTTTTTTTTTTTGCA | 6.13 ln median PBM intensity, better of two orientations | 6.92 ln median PBM intensity, better of two orientations
GTGCAC_negctrl_site301 (dsDNA) DNA 1: TTTATTTATTTATATTTTTTTATATAATTTATATAT DNA 2: ATATATAAATTATATAAAAAAATATAAATAAATAAA | 6.28 ln median PBM intensity, better of two orientations | 7.13 ln median PBM intensity, better of two orientations
GTGCAC_site9679 (dsDNA) DNA 1: TTTCTTTAATATATAGTGCATGTAAATTTTACAATA DNA 2: TATTGTAAAATTTACATGCACTATATATTAAAGAAA | 8.12 ln median PBM intensity, better of two orientations | 9.43 ln median PBM intensity, better of two orientations
GTGCAC_negctrl_site472 (dsDNA) DNA 1: TATTTAAAATAATAACAAAATTAACATAAATATATA DNA 2: TATATATTTATGTTAATTTTGTTATTATTTTAAATA | 6.24 ln median PBM intensity, better of two orientations | 7.1 ln median PBM intensity, better of two orientations
GTGCAC_site9829 (dsDNA) DNA 1: GAACGAAATAAGTGTGTGCACATGTAACCACAAATC DNA 2: GATTTGTGGTTACATGTGCACACACTTATTTCGTTC | 9.93 ln median PBM intensity, better of two orientations | 9.08 ln median PBM intensity, better of two orientations
GTGCAC_site10741 (dsDNA) DNA 1: AAACAAAACAACTAAGTGCATAAAAATAAAATAAAT DNA 2: ATTTATTTTATTTTTATGCACTTAGTTGTTTTGTTT | 8.67 ln median PBM intensity, better of two orientations | 10.7 ln median PBM intensity, better of two orientations
GTGCAC_site10292 (dsDNA) DNA 1: ATAATATGTTATTAAGTGCATATTAATTATTATTAT DNA 2: ATAATAATAATTAATATGCACTTAATAACATATTAT | 9.18 ln median PBM intensity, better of two orientations | 9.72 ln median PBM intensity, better of two orientations
GTGCAC_site9965 (dsDNA) DNA 1: AAGAACAAATATGAGGTGCAACACAATATATTATTA DNA 2: TAATAATATATTGTGTTGCACCTCATATTTGTTCTT | 10.2 ln median PBM intensity, better of two orientations | 9.55 ln median PBM intensity, better of two orientations
GTGCAC_negctrl_site298 (dsDNA) DNA 1: TTTTAACAAAACTAAATAATCATATATATAAGATAT DNA 2: ATATCTTATATATATGATTATTTAGTTTTGTTAAAA | 6.21 ln median PBM intensity, better of two orientations | 6.97 ln median PBM intensity, better of two orientations
GTGCAC_negctrl_site305 (dsDNA) DNA 1: ATTTATATAAAATTAAAATAATACAAATTTATTCAT DNA 2: ATGAATAAATTTGTATTATTTTAATTTTATATAAAT | 6.1 ln median PBM intensity, better of two orientations | 7 ln median PBM intensity, better of two orientations
GTGCAC_negctrl_site245 (dsDNA) DNA 1: TTTTATATCTAGTTTATATTTCTTAAATAAATAAAT DNA 2: ATTTATTTATTTAAGAAATATAAACTAGATATAAAA | 6.07 ln median PBM intensity, better of two orientations | 7.05 ln median PBM intensity, better of two orientations
GTGCAC_site9967 (dsDNA) DNA 1: ACATCGATTTATATTCTGCACTGAAGAAACTACAAC DNA 2: GTTGTAGTTTCTTCAGTGCAGAATATAAATCGATGT | 7.69 ln median PBM intensity, better of two orientations | 9.3 ln median PBM intensity, better of two orientations
GTGCAC_negctrl_site175 (dsDNA) DNA 1: AAAATGTATGGAATGCTCTTTTTTAAGTATTATATA DNA 2: TATATAATACTTAAAAAAGAGCATTCCATACATTTT | 6.2 ln median PBM intensity, better of two orientations | 6.96 ln median PBM intensity, better of two orientations
GTGCAC_negctrl_site155 (dsDNA) DNA 1: AAATTTTTTAATTTTTCTCATTTAATTTAAAAATTA DNA 2: TAATTTTTAAATTAAATGAGAAAAATTAAAAAATTT | 5.71 ln median PBM intensity, better of two orientations | 7.03 ln median PBM intensity, better of two orientations
GTGCAC_negctrl_site122 (dsDNA) DNA 1: ATCTTAGTTGAAATATAGAATTTATAATAAAAGTTA DNA 2: TAACTTTTATTATAAATTCTATATTTCAACTAAGAT | 6.01 ln median PBM intensity, better of two orientations | 7.07 ln median PBM intensity, better of two orientations
GTGCAC_site9478 (dsDNA) DNA 1: ATATTATATTGGATGTTGCACTTAACAAAAGGATAT DNA 2: ATATCCTTTTGTTAAGTGCAACATCCAATATAATAT | 8.41 ln median PBM intensity, better of two orientations | 9.38 ln median PBM intensity, better of two orientations
GTGCAC_negctrl_site13 (dsDNA) DNA 1: AAAAAAAAAAATATATTAAAATAAAAAATATTAACA DNA 2: TGTTAATATTTTTTATTTTAATATATTTTTTTTTTT | 6.05 ln median PBM intensity, better of two orientations | 6.95 ln median PBM intensity, better of two orientations

— PMC11417369, “DNA sequence and chromatin differentiate sequence-specific transcription factor binding in the human malaria parasite Plasmodium falciparum”
